Key:
[1] = target: Aβ1-42 peptide fraction consisting primarily of monomers (LMW monomer fraction from SEC); test: ELISA on coated fraction; antibody dilution 1:1 (starting dilution 0.5 µg/ml); mean of 3 assays
[2] = target: Aβ1-42 peptide fraction enriched in oligomers (high molecular weight fraction from SEC); test: as above
[3] = target: Aβ1-42 peptide fraction consisting primarily of monomers (LMW monomer fraction from SEC); test: ELISA on coated fraction; antibody dilution 1:64 (starting dilution 0.5 µg/ml); assay 3
[4] = target: Aβ1-42 peptide fraction enriched in oligomers (high molecular weight fraction from SEC); test: as above
[5] = target: Aβ1-42 peptide fraction consisting primarily of monomers (LMW monomer fraction from SEC); test: ELISA on coated fraction; antibody dilution 1:32 (starting dilution 0.5 µg/ml); assay 1
[6] = target: Aβ1-42 peptide fraction enriched in oligomers (high molecular weight fraction from SEC); test: as above
[7] = target: Aβ1-42 peptide fraction enriched in oligomers (high molecular weight fraction from SEC); test: ELISA on coated fraction; antibody dilution 1:8 (starting dilution 0.5 µg/ml); assay 3
[8] = target: Aβ1-42 peptide fraction consisting primarily of monomers (LMW monomer fraction from SEC); test: ELISA on coated fraction; antibody dilution 1:128 (starting dilution 0.5 µg/ml); assay 2
[9] = target: Aβ1-42 peptide fraction enriched in oligomers (high molecular weight fraction from SEC); test: as above
[10] = target: Aβ1-42 peptide fraction consisting primarily of monomers (LMW monomer fraction from SEC); test: ELISA on coated fraction; antibody dilution 1:64 (starting dilution 0.5 µg/ml); assay 2
[11] = target: Aβ1-42 peptide fraction enriched in oligomers (high molecular weight fraction from SEC); test: as above
[12] = target: Aβ1-42 peptide fraction consisting primarily of monomers (LMW monomer fraction from SEC); test: ELISA on coated fraction; antibody dilution 1:2 (starting dilution 0.5 µg/ml); mean of 3 assays
[13] = target: Aβ1-42 peptide fraction enriched in oligomers (high molecular weight fraction from SEC); test: as above
[14] = target: Aβ1-42 peptide fraction consisting primarily of monomers (LMW monomer fraction from SEC); test: ELISA on coated fraction; antibody dilution 1:2 (starting dilution 0.5 µg/ml); assay 1
[15] = target: Aβ1-42 peptide fraction enriched in oligomers (high molecular weight fraction from SEC); test: as above
[16] = target: Aβ1-42 peptide fraction consisting primarily of monomers (LMW monomer fraction from SEC); test: ELISA on coated fraction; antibody dilution 1:16 (starting dilution 0.5 µg/ml); assay 1
[17] = target: Aβ1-42 peptide fraction enriched in oligomers (high molecular weight fraction from SEC); test: as above
[18] = target: Aβ1-42 peptide fraction consisting primarily of monomers (LMW monomer fraction from SEC); test: ELISA on coated fraction; antibody dilution 1:64 (starting dilution 0.5 µg/ml); mean of 3 assays
[19] = target: Aβ1-42 peptide fraction enriched in oligomers (high molecular weight fraction from SEC); test: as above
[20] = target: Aβ1-42 peptide fraction consisting primarily of monomers (LMW monomer fraction from SEC); test: ELISA on coated fraction; antibody dilution 1:16 (starting dilution 0.5 µg/ml); mean of 3 assays
[21] = target: Aβ1-42 peptide fraction enriched in oligomers (high molecular weight fraction from SEC); test: as above
[22] = target: Aβ1-42 peptide fraction consisting primarily of monomers (LMW monomer fraction from SEC); test: ELISA on coated fraction; antibody dilution 1:128 (starting dilution 0.5 µg/ml); mean of 3 assays
[23] = target: Aβ1-42 peptide fraction enriched in oligomers (high molecular weight fraction from SEC); test: as above
[24] = target: Aβ1-42 peptide fraction consisting primarily of monomers (LMW monomer fraction from SEC); test: ELISA on coated fraction; antibody dilution 1:2 (starting dilution 0.5 µg/ml); assay 3
[25] = target: Aβ1-42 peptide fraction enriched in oligomers (high molecular weight fraction from SEC); test: as above
[26] = target: Aβ1-42 peptide fraction consisting primarily of monomers (LMW monomer fraction from SEC); test: ELISA on coated fraction; antibody dilution 1:32 (starting dilution 0.5 µg/ml); assay 3
[27] = target: Aβ1-42 peptide fraction enriched in oligomers (high molecular weight fraction from SEC); test: as above
[28] = target: Aβ1-42 peptide fraction consisting primarily of monomers (LMW monomer fraction from SEC); test: ELISA on coated fraction; antibody dilution 1:8 (starting dilution 0.5 µg/ml); assay 1
[29] = target: Aβ1-42 peptide fraction enriched in oligomers (high molecular weight fraction from SEC); test: as above
[30] = target: Aβ1-42 peptide fraction consisting primarily of monomers (LMW monomer fraction from SEC); test: ELISA on coated fraction; antibody dilution 1:64 (starting dilution 0.5 µg/ml); assay 1
[31] = target: Aβ1-42 peptide fraction enriched in oligomers (high molecular weight fraction from SEC); test: as above
[32] = target: Aβ1-42 peptide fraction consisting primarily of monomers (LMW monomer fraction from SEC); test: ELISA on coated fraction; antibody dilution 1:4 (starting dilution 0.5 µg/ml); assay 3
[33] = target: Aβ1-42 peptide fraction enriched in oligomers (high molecular weight fraction from SEC); test: as above
[34] = target: Aβ1-42 peptide fraction enriched in oligomers (high molecular weight fraction from SEC); test: ELISA on coated fraction; antibody dilution 1:8 (starting dilution 0.5 µg/ml); assay 2
[35] = target: Aβ1-42 peptide fraction consisting primarily of monomers (LMW monomer fraction from SEC); test: ELISA on coated fraction; antibody dilution 1:2 (starting dilution 0.5 µg/ml); assay 2
[36] = target: Aβ1-42 peptide fraction enriched in oligomers (high molecular weight fraction from SEC); test: as above
[37] = target: Aβ1-42 peptide fraction consisting primarily of monomers (LMW monomer fraction from SEC); test: ELISA on coated fraction; antibody dilution 1:4 (starting dilution 0.5 µg/ml); assay 2
[38] = target: Aβ1-42 peptide fraction enriched in oligomers (high molecular weight fraction from SEC); test: as above
[39] = target: Aβ1-42 peptide fraction consisting primarily of monomers (LMW monomer fraction from SEC); test: ELISA on coated fraction; antibody dilution 1:1 (starting dilution 0.5 µg/ml); assay 3
[40] = target: Aβ1-42 peptide fraction enriched in oligomers (high molecular weight fraction from SEC); test: as above
[41] = target: Aβ1-42 peptide fraction consisting primarily of monomers (LMW monomer fraction from SEC); test: ELISA on coated fraction; antibody dilution 1:128 (starting dilution 0.5 µg/ml); assay 1
[42] = target: Aβ1-42 peptide fraction enriched in oligomers (high molecular weight fraction from SEC); test: as above
[43] = target: Aβ1-42 peptide fraction consisting primarily of monomers (LMW monomer fraction from SEC); test: ELISA on coated fraction; antibody dilution 1:32 (starting dilution 0.5 µg/ml); mean of 3 assays
[44] = target: Aβ1-42 peptide fraction enriched in oligomers (high molecular weight fraction from SEC); test: as above
[45] = target: Aβ1-42 peptide fraction consisting primarily of monomers (LMW monomer fraction from SEC); test: ELISA on coated fraction; antibody dilution 1:128 (starting dilution 0.5 µg/ml); assay 3
[46] = target: Aβ1-42 peptide fraction enriched in oligomers (high molecular weight fraction from SEC); test: as above
[47] = target: Aβ1-42 peptide fraction consisting primarily of monomers (LMW monomer fraction from SEC); test: ELISA on coated fraction; antibody dilution 1:16 (starting dilution 0.5 µg/ml); assay 3
[48] = target: Aβ1-42 peptide fraction enriched in oligomers (high molecular weight fraction from SEC); test: as above
[49] = target: Aβ1-42 peptide fraction consisting primarily of monomers (LMW monomer fraction from SEC); test: ELISA on coated fraction; antibody dilution 1:4 (starting dilution 0.5 µg/ml); mean of 3 assays
[50] = target: Aβ1-42 peptide fraction enriched in oligomers (high molecular weight fraction from SEC); test: as above
[51] = target: Aβ1-42 peptide fraction enriched in oligomers (high molecular weight fraction from SEC); test: ELISA on coated fraction; antibody dilution 1:8 (starting dilution 0.5 µg/ml); mean of 3 assays
[52] = target: Aβ1-42 peptide fraction consisting primarily of monomers (LMW monomer fraction from SEC); test: ELISA on coated fraction; antibody dilution 1:1 (starting dilution 0.5 µg/ml); assay 1
[53] = target: Aβ1-42 peptide fraction enriched in oligomers (high molecular weight fraction from SEC); test: as above
[54] = target: Aβ1-42 peptide fraction consisting primarily of monomers (LMW monomer fraction from SEC); test: ELISA on coated fraction; antibody dilution 1:16 (starting dilution 0.5 µg/ml); assay 2
[55] = target: Aβ1-42 peptide fraction enriched in oligomers (high molecular weight fraction from SEC); test: as above
[56] = target: Aβ1-42 peptide fraction consisting primarily of monomers (LMW monomer fraction from SEC); test: ELISA on coated fraction; antibody dilution 1:1 (starting dilution 0.5 µg/ml); assay 2
[57] = target: Aβ1-42 peptide fraction enriched in oligomers (high molecular weight fraction from SEC); test: as above
[58] = target: Aβ1-42 peptide fraction consisting primarily of monomers (LMW monomer fraction from SEC); test: ELISA on coated fraction; antibody dilution 1:32 (starting dilution 0.5 µg/ml); assay 2
[59] = target: Aβ1-42 peptide fraction enriched in oligomers (high molecular weight fraction from SEC); test: as above
[60] = target: Aβ1-42 peptide fraction enriched in oligomers (high molecular weight fraction from SEC); test: ELISA on coated fraction; antibody dilution 1:4 (starting dilution 0.5 µg/ml); assay 1

control antibody 6E10
O.D. (mean) (O.D. at 405 nm) [1]: 3.83 | O.D. (mean) (O.D. at 405 nm) [2]: 3.64 | O.D. (O.D. at 405 nm) [3]: 1.08 | O.D. (O.D. at 405 nm) [4]: 0.95 | O.D. (O.D. at 405 nm) [5]: 1.18 | O.D. (O.D. at 405 nm) [6]: 1.27 | O.D. (O.D. at 405 nm) [7]: 3.23 | O.D. (O.D. at 405 nm) [8]: 0.75 | O.D. (O.D. at 405 nm) [9]: 0.61 | O.D. (O.D. at 405 nm) [10]: 0.94 | O.D. (O.D. at 405 nm) [11]: 0.88 | O.D. (mean) (O.D. at 405 nm) [12]: 3.59 | O.D. (mean) (O.D. at 405 nm) [13]: 3.59 | O.D. (O.D. at 405 nm) [14]: 3.3 | O.D. (O.D. at 405 nm) [15]: 3.39 | O.D. (O.D. at 405 nm) [16]: 1.78 | O.D. (O.D. at 405 nm) [17]: 1.78 | O.D. (mean) (O.D. at 405 nm) [18]: 0.94 | O.D. (mean) (O.D. at 405 nm) [19]: 0.92 | O.D. (mean) (O.D. at 405 nm) [20]: 1.98 | O.D. (mean) (O.D. at 405 nm) [21]: 1.92 | O.D. (mean) (O.D. at 405 nm) [22]: 0.75 | O.D. (mean) (O.D. at 405 nm) [23]: 0.63 | O.D. (O.D. at 405 nm) [24]: 4 | O.D. (O.D. at 405 nm) [25]: 3.83 | O.D. (O.D. at 405 nm) [26]: 1.54 | O.D. (O.D. at 405 nm) [27]: 1.4 | O.D. (O.D. at 405 nm) [28]: 2.67 | O.D. (O.D. at 405 nm) [29]: 2.73 | O.D. (O.D. at 405 nm) [30]: 0.81 | O.D. (O.D. at 405 nm) [31]: 0.93 | O.D. (O.D. at 405 nm) [32]: 3.52 | O.D. (O.D. at 405 nm) [33]: 3.64 | O.D. (O.D. at 405 nm) [34]: 2.99 | O.D. (O.D. at 405 nm) [35]: 3.48 | O.D. (O.D. at 405 nm) [36]: 3.55 | O.D. (O.D. at 405 nm) [37]: 3.29 | O.D. (O.D. at 405 nm) [38]: 3.37 | O.D. (O.D. at 405 nm) [39]: 4.04 | O.D. (O.D. at 405 nm) [40]: 3.89 | O.D. (O.D. at 405 nm) [41]: 0.64 | O.D. (O.D. at 405 nm) [42]: 0.62 | O.D. (mean) (O.D. at 405 nm) [43]: 1.36 | O.D. (mean) (O.D. at 405 nm) [44]: 1.32 | O.D. (O.D. at 405 nm) [45]: 0.86 | O.D. (O.D. at 405 nm) [46]: 0.66 | O.D. (O.D. at 405 nm) [47]: 2.23 | O.D. (O.D. at 405 nm) [48]: 2.07 | O.D. (mean) (O.D. at 405 nm) [49]: 3.27 | O.D. (mean) (O.D. at 405 nm) [50]: 3.37 | O.D. (mean) (O.D. at 405 nm) [51]: 2.98 | O.D. (O.D. at 405 nm) [52]: 3.67 | O.D. (O.D. at 405 nm) [53]: 3.36 | O.D. (O.D. at 405 nm) [54]: 1.94 | O.D. (O.D. at 405 nm) [55]: 1.92 | O.D. (O.D. at 405 nm) [56]: 3.77 | O.D. (O.D. at 405 nm) [57]: 3.67 | O.D. (O.D. at 405 nm) [58]: 1.34 | O.D. (O.D. at 405 nm) [59]: 1.3 | O.D. (O.D. at 405 nm) [60]: 3.1
